Results taken from patent US20050130130A1 (INSTITUT NATIONAL DE LA SANTE ET DE LA RECHERCHE MEDICALE …, published 2005).

Target: T1, p50.2 KAR (human, UniProt P43631 22-304)
T1 construct: whole, on cells; also called KAR of D.F. NK cells; KAR p50.2
Experiment: anti-CD158 immunoprecipitation from NK cell lysates, immunotransfer with anti-FcεRIγ

T1 sequence (P43631 22-304): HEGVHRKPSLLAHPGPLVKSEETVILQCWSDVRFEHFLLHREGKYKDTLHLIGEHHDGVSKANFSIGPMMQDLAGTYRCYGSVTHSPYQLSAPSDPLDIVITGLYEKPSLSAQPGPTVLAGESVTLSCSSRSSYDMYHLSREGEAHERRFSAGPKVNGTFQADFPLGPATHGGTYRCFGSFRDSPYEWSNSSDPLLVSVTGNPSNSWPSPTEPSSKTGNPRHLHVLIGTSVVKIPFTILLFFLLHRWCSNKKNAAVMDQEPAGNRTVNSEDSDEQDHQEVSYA

B1: FcεRIγ (other, human, UniProt P30273 19-86, looked up)
chain: LGEPQLCYILDAILFLYGIVLTLLYCRLKIQVRKAAITSYEKSDGVYTGLSTRNQETYETLKHEKPPQ
notes: whole, on cells; Endogenous protein in NK cell lysates; also called FcεRI gamma
Question: Does B1 bind?
Answer: no binding
